One may read the Kd as the equilibrium constant for the complex coming apart.

The target of the assay is oocyst extract. Briefly: antigen binding analysis on oocyst extract; method not stated.

B1: Di-kappa-body (protein)
chain: QVQLQQSGPELVKPGASVKMSCKASGYTFTVYIIHWLKQKPGQGLEWIGYINPYNDGTKYNEKFRGKATLTSDKSSSTAYMELSSLTSEDSAVYYCARFYYGSSSVFDYWGQGTTLTVSSGGSGGSDVVMTQTQKFMSTSVGDRVSVTCKASQNVGTNVAWYQQKPGQSPKALIYSASYRYSGVPDRFTGSGSGTDFTLTISNVQSEDLAEYFCQQYNSYPLTFGAGTKLELKRTVAAPSVFIFPPSDEQLKSGTASVVCLLNNFYPREAKVQWKVDNALQSGNSQESVTEQDSKDSTYSLSSTLTLSKADYEKHKVYACEVTHQGLSSPVTKSFNRGEC
As for B1, the Kd worked out at 0.55 nM.

The values are drawn from patent EP2172481A1.
